Data set [1] can be described thus: enzyme kinetic measurements with purified protein. It is filed as biochemical. The settings on record: for Km: 0-1280 uM substrate; for Vmax Fenoxaprop / Vmax Fluazifop / Vmax Haloxyfop / Vmax Quizalofop-P: relative values. The procedure:
The high-throughput herbicide degradation enzyme assay was designed to assay the enzymatic activity of the engineered proteins towards various herbicides using crude bacterial extract. The engineered protein's oxygenase activity (that is, its enzymatic activity) was measured by an end point colorimetric assay utilizing detection of phenol products through measurement of absorbance at 510 nm from 4-aminoantipyrine and potassium ferricyanide. This assay was based on the assay described in Fukomori and Hausinger, Journal of Biological Chemistry (1993) 268(32):24311-24317. Enzyme reactions were assayed in 96-well plates in a total volume of 150ul that contained: 20 mM MOPS pH 6.75, 50-200 uM NH4FeSO4, 50-200 uM sodium ascorbate, 1 mM alpha-ketoglutarate (aKG), 10 ul of E. coli cell lysate containing expressed engineered protein, and substrate (either an AOPP herbicide or phenoxy acid herbicide). […] Absorbance measurements were made on a standard laboratory spectrometer. Assays were scaled as needed to enhance throughput. Standard curves were generated using purified protein or product standards.
Further protein characterization, such as Km, Vmax, and crystal structure analysis, was performed using the five engineered proteins from Table 2. For this detailed analysis, purified protein was prepared as follows: 2 ml overnight cultures of E. coli expressing a transgene encoding a given MON-HT protein were used to inoculate 500 ml of broth and grown at 37° C. for 4 hours followed by culture at 15° C. for approximately 36 hours. Then 250 ml of the 500 ml bacterial culture was pelleted by centrifugation and resuspended in 25 ml of extraction buffer (20 mM Tris, pH 7.8, 300 mM NaCl, 5 mM beta-mercaptoethanol (BME), 20 mM imidazole (Fluka/Sigma-Aldrich, St. Louis, MO), 125 units/ml of benzonase and 10K units/ml of lysozyme (Novagen, Darmstadt, Germany). The cell slurry was passed through a cell disruptor once at 20000 psi and then this cell lysate was clarified by centrifugation at 35,000×g for 20 min at 4° C. The supernatant containing the soluble His-tagged proteins was used for protein purification. For this purification, the supernatant was applied to a 1 ml HisTrap™ FF column (Nickel Sepharose) (GE Healthcare, Piscataway, NJ) using an AKTaxpress™ system (GE Healthcare, Piscataway, NJ) following the standard manufacturer's protocol. The wash buffer consisted of: 20 mM Tris pH 7.8, 300 mM NaCl, 20 mM imidazole and 5 mM BME. The composition of elution buffer was the same as the wash buffer except with 500 mM imidazole. The eluate from the nickel column was desalted on a Quick Spin Protein Sephadex G-25 fine column (Roche Applied Science, Indianapolis, IN) following the manufacturer's protocol. The eluted protein was in buffer consisting of: 20 mM Tris pH 7.8, 50 mM NaCl and 5 mM BME. Protein extract purity was assessed by SDS-PAGE analysis. Protein concentration was determined by Bradford assay using Bio-Rad Protein Assay dye reagent (Biorad, Hercules, CA, cat no 500-0006).
Purified protein for the five engineered proteins was analyzed using the enzyme assay described in this Example 1, but with four different AOPP herbicides as substrates: quizalofop-P, haloxyfop, fenoxaprop, and fluazifop. Standard curves were generated using 2,4-dichlorophenol (2,4-DCP), which was used to produce a general phenol standard curve. The amount of phenol generated in the assay by the engineered proteins was calculated based on this standard curve. The controls were purified wild-type enzyme, no enzyme, and no substrate. Enzyme kinetic measurements of the five engineered proteins was done using 0, 20, 40, 80, 160, 320, 640, or 1280 uM of quizalofop-P, haloxyfop, fenoxaprop, or fluazifop herbicides.

The subject of data set [2] is transgenic soybean plants. The experiment in a line: R0 soybean green house 2,4-D spray test. It is filed as in vivo. The settings on record: single copy R0 soy events. The source says: Two engineered proteins were selected for analysis in transgenic soybean. DNA constructs were produced for expressing MON-HT1 (SEQ ID NO:14) and MON-HT2 (SEQ ID NO:18) with codon usage optimized for dicot expression using methods known to those skilled in the art. Enhancers, promoters, leaders, introns, CTPs, and 3′UTRs in various combinations were operably linked to the engineered proteins in these DNA constructs. The DNA constructs were used to transform soybean using Agrobacterium tumifaciens and standard methods known in the art. Regenerated R0 transgenic plantlets were grown in the green house. Approximately 9 weeks after transformation at the 1-2 trifoliate leaf stage, single copy R0 events were identified and sprayed with 2,4-D herbicide at a rate of 0.5× (0.375 lb ae/acre), 2× (1.5 lb ae/acre), or 4× (3.0 lb ae/acre). Approximately 2 weeks after herbicide application, the plants were rated for herbicide injury on a scale of 1 to 3, where 1=little to no injury (<20%), 2=moderate injury (20-50%) and 3=severe injury (>50%).

Where [3] appears, read: CTP No, 2,4-D rate 0.5X, about 2 weeks after application.

Substitutions are numbered along the chain they refer to. Like-named read-outs stand apart in the source and are kept apart here.

Consider four molecules from patent US12723255B2, “Herbicide tolerance genes and methods of use thereof” (priority 2014, dated 2026).

B1: MON-HT51: engineered oxygenase protein, amino acid sequence SEQ ID NO:1 (protein)
chain: MHAALSPLSQRFERIAVQPLTGVLGAEITGVDLREPLSDSTWNEILDAFHTYQVIYFPGQAITNEQHIAFSRRFGPVDPVPLLKSIEGYPEVQMIRREANESGRVIGDDWHTDSSFLDAPPAAVVMRAIDVPEHGGDTGFLSMYTAYDALSDGLKKLISGLNVVHSATRVFGSLYQAQNRRFSNTSVKVMDVADGDRETVHPLVVTHPGSGRKGLYVNQVYCQRIEGMSEKESEPLLSFLFAHATKPEFTCRVRWKKDQVLVWDNLCTMHYAINDYHGQTRILHRTTVGGVRPAR
In general, Km refers to the substrate concentration at which the rate is half of its maximum. As for B1, the Km in data set [1] (read-out: Km Fenoxaprop) amounted to 870 µM. In addition, in data set [1] (read-out: Km Fluazifop), the Michaelis-Menten constant (Km) amounted to 4 µM. The Km in data set [1] (read-out: Km Haloxyfop) stood at 250 µM. In addition, the Km in data set [1] (read-out: Km Quizalofop-P) amounted to 570 µM. In data set [1], the “Vmax Fenoxaprop” value is on record as 180, the “Vmax Fluazifop” value came out at 12, the “Vmax Haloxyfop” value was 48 and the “Vmax Quizalofop-P” value turned out to be 120.

B2: MON-HT1: engineered oxygenase protein, amino acid sequence SEQ ID NO:14 (protein)
chain: MHAALTPLTNKYRFIDVQPLTGVLGAEITGVDLREPLDDSTWNEILDAFHTYQVIYFPGQAITNEQHIAFSRRFGPVDPVPILKSIEGYPEVQMIRREANESSRFIGDDWHTDSTFLDAPPAAVVMRAIEVPEYGGDTGFLSMYSAWETLSPTMQATIEGLNVVHSATKVFGSLYQATNWRFSNTSVKVMDVDAGDRETVHPLVVTHPVTGRRALYCNQVYCQKIQGMTDAESKSLLQFLYEHATKFDFTCRVRWKKDQVLVWDNLCTMHRAVPDYAGKFRYLTRTTVAGDKPSR
For the molecule B2, the “Events with 20-50% injury” value came to 10 in data set [2] (CTP No, 2,4-D rate 0.5X); 30 in data set [2] (CTP No, 2,4-D rate 2X); 35 in data set [2] (CTP Yes, 2,4-D rate 2X); 6 in data set [2] (CTP Yes, 2,4-D rate 4X). The “Events with injury >50%” value in data set [2] (CTP No, 2,4-D rate 0.5X) is given as 0; in data set [2] (CTP No, 2,4-D rate 2X), 0; in data set [2] (CTP Yes, 2,4-D rate 2X), 0; in data set [2] (CTP Yes, 2,4-D rate 4X) it was 0. For the same molecule, the “Events with <20% injury” value was found to be 120 in data set [2] (setting [3]); 6 in data set [2] (CTP No, 2,4-D rate 2X); 101 in data set [2] (CTP Yes, 2,4-D rate 2X); 5 in data set [2] (CTP Yes, 2,4-D rate 4X).

B3: MON-HT2: engineered oxygenase protein, amino acid sequence SEQ ID NO:18 (protein)
chain: B2 chain with I82L, F105V, T112S, V273A
Regarding B3, in data set [2] (CTP No, 2,4-D rate 0.5X), the “Events with 20-50% injury” value is 19 and the “Events with injury >50%” value is given as 0. The “Events with <20% injury” value in data set [2] (setting [3]) was determined as 3.

B4: MON-HT55: engineered oxygenase protein, amino acid sequence SEQ ID NO:11 (protein)
chain: MHAALSPLSQRFERIAVQPLTGVLGAEITGVDLREPLDDSTWNEILDAFHTYQVIYFPGQAITNEQHIAFSRRFGPVDPVPLLKSIEGYPEVQMIRREANESGRVIGENWHTDSTFLDAPPAAVVMYAKEIPPYGGDTLFTSMYTAWETLSPTMQATIEGLNVVHSATRVFGSLYQAQNRRFSNTSVKVMDVDAGDRETVHPLVVTHPETGRKGLYVNQVYCQRIEGMSEKESEPLLSFLFAHATKPEFTCRVRWQEGDVLVWDNLCTQHYAVPDYAGKFRYLTRTTVGGVRPAR
With B4, the Km in data set [1] (read-out: Km Fenoxaprop) stood at 200 µM. Moreover, the Km in data set [1] (read-out: Km Fluazifop) was determined as 50 µM. In addition, the Michaelis constant (Km) in data set [1] (read-out: Km Haloxyfop) is 450 µM. Moreover, in data set [1] (read-out: Km Quizalofop-P), the Km came out at 250 µM. Also, in data set [1], the “Vmax Fenoxaprop” value is 450, the “Vmax Fluazifop” value was determined as 320, the “Vmax Haloxyfop” value is listed as 190 and the “Vmax Quizalofop-P” value is on record as 320.
